In article PMC10214136 (Proceedings of the National Academy of Sciences of the …, 2023):
Residue numbers refer to the chain shown, from its start. Names and notes keep the numbering of the source. Where two headings read alike, the source gives them in different places.

Legend:
[1] = molecular target: FtsEX complex (Pseudomonas aeruginosa), wild type, in peptidiscs (Pseudomonas aeruginosa); assay: cryo-EM structure
cryo-EM structure [2] = molecular target: the molecule itself; assay: cryo-EM structure
[3] = molecular target: T1, FtsE (Pseudomonas aeruginosa), wild type (Pseudomonas aeruginosa, UniProt A0A069QBX1 1-223); assay: co-purification
T1 sequence: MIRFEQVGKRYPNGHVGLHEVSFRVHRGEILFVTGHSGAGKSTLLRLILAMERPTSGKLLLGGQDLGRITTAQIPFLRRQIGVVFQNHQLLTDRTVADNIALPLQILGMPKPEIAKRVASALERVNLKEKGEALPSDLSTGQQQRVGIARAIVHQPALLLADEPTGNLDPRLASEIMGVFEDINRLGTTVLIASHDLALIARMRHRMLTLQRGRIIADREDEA

purified protein = substrate: Nc1ncnc2c1ncn2[C@@H]1O[C@H](COP(=O)(O)OP(=O)(O)OP(=O)(O)O)[C@@H](O)[C@H]1O; assay: purified protein; details: ATP/MgCl2, pH 7.5, 37 °C, FtsEX in peptidiscs with EnvC
cryo-EM structure [4] = molecular target: the molecule itself; assay: cryo-EM structure; remark: listed apart in the source
[5] = molecular target: FtsE^E163QX–EnvC complex (Pseudomonas aeruginosa) (Pseudomonas aeruginosa); assay: cryo-EM structure

Question: “EnvC (Pseudomonas aeruginosa), envC^Δ19 construct, wild type (natural protein)” was tested. Which stoichiometry N (EnvC per FtsE2-FtsX2 complex) [1] did it give?
Answer: 1

B1: FtsX (Pseudomonas aeruginosa) (natural protein)
chain: MSANDLPRGPEEGAPERKTREKPSQEQTDWSGSFSAYLESHRASLVDSLRRLFGHPFGSFFTCLVMGITLSLPMGLSLLLNNVERLGGSWQRAAQISLFLDLKTSENQGQDLREQIERLPDVIEAQLISREQALSELQEQSGLGEALKELPENPLPPVISVTPKQIDRAGLEALRQQLAELPHVQQAQLDLVWVERLSAILKLGERFVFGLTILLVLTLLLVVGNTIRLHIENRRNEIEVIKLVGGTDGYVRRPFLYMGALYGLGAGILSWALLAYSLNWLNGSVVNLSGLYGSDFGLQGVPLDDGLSLTVGAVLLGWVGAWLAVARHLRELAPR
Question: With B1 as the molecule, how does the “stoichiometry N” value (cryo-EM structure [2]) read?
Answer: 2

Question: What about the “stoichiometry N” value [3] of the same molecule?
Answer: 1 FtsE:FtsX molar ratio

B2: FtsEX/EnvC (FtsEX–EnvC complex) (Pseudomonas aeruginosa PAO1) (protein)
chain: T1 sequence
Question: With B2 as the molecule, how does the Km (purified protein) read?
Answer: 230 µM

B3: FtsE^E163Q (Pseudomonas aeruginosa) (natural protein)
chain: T1 sequence with E163Q
Question: How did the “stoichiometry N” value (cryo-EM structure [4]) turn out when B3 was run?
Answer: 2

B4: AmiB (Pseudomonas aeruginosa), amiB^Δ29 construct (enzyme)
chain: SLLQAHLSHRSALRSRFRFDPAAVMDCLRAEVLGQDPALQAVEDMLKVVRADIADPRRPLFSALFLGPTGVGKTEIVRALARALHGDAEGFCRVDMNTLSQEHYAAALTGAPPGYVGAKEGTTLLEQDKLDGSPGRPGIVLFDELEKASPEVVHALLNVLDNGLLRVASGERTYHFRNTLVFMTSNLCAHEIQRYDERRQRLPWRLLPVGGERRRRDIDGMVRARLLKTFSPEFVNRLDSVVTFNWIERDVVARLVELEVQRLNRRLEKHRCRLEATPEVLAKIARAGFDRQFGARALRRSVRHHLEVPLAEHLLDHHQPGDGNCTTYLASLEHERVRFVRR
Question: How did the stoichiometry N (AmiB per FtsE2-FtsX2-EnvC complex) [5] turn out when B4 was run?
Answer: 1
